Target: T1, tetherin (Bst2), endogenous (human (endogenous in HeLa)), Q10589
T1 chain: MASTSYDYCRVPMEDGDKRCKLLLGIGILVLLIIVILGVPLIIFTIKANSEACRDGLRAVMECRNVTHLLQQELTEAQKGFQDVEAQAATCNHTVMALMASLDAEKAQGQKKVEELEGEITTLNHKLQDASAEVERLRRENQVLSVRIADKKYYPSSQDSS
Test: non-reducing SDS-PAGE and Western blot
Conditions: remark: other sources report otherwise

B1: tetherin (Bst2), endogenous, Q10589 1-161 (natural protein)
chain: MASTSYDYCRVPMEDGDKRCKLLLGIGILVLLIIVILGVPLIIFTIKANSEACRDGLRAVMECRNVTHLLQQELTEAQKGFQDVEAQAATCNHTVMALMASLDAEKAQGQKKVEELEGEITTLNHKLQDASAEVERLRRENQVLSVRIADKKYYPSSQDSS
Question: How did the stoichiometry N turn out when B1 was run?
Answer: 2

— article doi:10.1101/2021.01.06.425396
